According to paper PMC5389675:

Tests used:
Assay in all cases: EMSA
ETV4 FL K226ac = ETV4 FL K226ac (Homo sapiens, UniProt P43268 1-484)
ETV4 FL K260ac = ETV4 FL K260ac (Homo sapiens, UniProt P43268 1-484)
ETV4 FL L430A = ETV4 FL L430A (Homo sapiens, UniProt P43268 1-484, L430A)
ETV4 FL I407A/L430A = ETV4 FL I407A/L430A (Homo sapiens, UniProt P43268 1-484, I407A;L430A)
ETV4 L430M = ETV4 L430M (Homo sapiens, UniProt P43268 1-484, L430M)
ETV4 FL E404K = ETV4 FL E404K (Homo sapiens, UniProt P43268 1-484, E404K)
ETV4 337-436 E404K = molecular target: T1, ETV4 337-436 E404K (Homo sapiens, UniProt P43268 337-436, E404K)
T1 sequence: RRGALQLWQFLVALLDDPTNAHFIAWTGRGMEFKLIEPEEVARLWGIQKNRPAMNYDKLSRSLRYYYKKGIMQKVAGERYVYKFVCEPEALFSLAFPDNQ

ETV4 337-436 E423K = ETV4 337-436 E423K (Homo sapiens, UniProt P43268 337-436, E423K)
ETV4 FL E425K = ETV4 FL E425K (Homo sapiens, UniProt P43268 1-484, E425K)
ETV4 FL E423K = ETV4 FL E423K (Homo sapiens, UniProt P43268 1-484, E423K)
ETV4 FL F428A/F432A = ETV4 FL F428A/F432A (Homo sapiens, UniProt P43268 1-484, F428A;F432A)
ETV4 337-436 E425K = ETV4 337-436 E425K (Homo sapiens, UniProt P43268 337-436, E425K)
ETV4 337-436 F428A/F432A = ETV4 337-436 F428A/F432A (Homo sapiens, UniProt P43268 337-436, F428A;F432A)
ETV4 337-484 = ETV4 337-484 (Homo sapiens, UniProt P43268 337-484)
Chain of ETV4 337-484 (P43268 337-484): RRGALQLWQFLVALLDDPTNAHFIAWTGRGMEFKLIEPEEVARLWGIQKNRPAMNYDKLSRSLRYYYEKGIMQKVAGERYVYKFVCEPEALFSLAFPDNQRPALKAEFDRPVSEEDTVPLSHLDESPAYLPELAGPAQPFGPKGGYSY

Chain of ETV4 FL E404K (P43268 whole entry E404K): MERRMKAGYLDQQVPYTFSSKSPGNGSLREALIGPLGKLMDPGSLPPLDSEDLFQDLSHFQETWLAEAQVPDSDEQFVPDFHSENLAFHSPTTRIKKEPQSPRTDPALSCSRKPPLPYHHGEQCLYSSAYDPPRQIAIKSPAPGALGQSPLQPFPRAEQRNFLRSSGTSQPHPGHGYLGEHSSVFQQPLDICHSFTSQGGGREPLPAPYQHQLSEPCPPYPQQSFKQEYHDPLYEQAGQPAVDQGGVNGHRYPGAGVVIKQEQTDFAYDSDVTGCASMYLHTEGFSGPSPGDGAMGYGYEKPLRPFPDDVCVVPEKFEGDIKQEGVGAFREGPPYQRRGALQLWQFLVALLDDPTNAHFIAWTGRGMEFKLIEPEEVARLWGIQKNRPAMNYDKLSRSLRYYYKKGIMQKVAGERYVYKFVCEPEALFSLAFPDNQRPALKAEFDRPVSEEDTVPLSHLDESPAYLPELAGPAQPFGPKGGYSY
Chain of ETV4 FL E423K (P43268 whole entry E423K): as the sequence (P43268 whole entry E404K) above, with K404E, E423K counted along it
Chain of ETV4 L430M (P43268 whole entry L430M): as the sequence (P43268 whole entry E404K) above, with K404E, L430M counted along it
Chain of ETV4 FL I407A/L430A (P43268 whole entry I407A/L430A): as the sequence (P43268 whole entry E404K) above, with K404E, I407A, L430A counted along it
Chain of ETV4 FL L430A (P43268 whole entry L430A): as the sequence (P43268 whole entry E404K) above, with K404E, L430A counted along it
Chain of ETV4 FL K260ac (P43268 whole entry): as the sequence (P43268 whole entry E404K) above, with K404E counted along it
Chain of ETV4 FL K226ac (P43268 whole entry): as the sequence (P43268 whole entry E404K) above, with K404E counted along it
Chain of ETV4 FL F428A/F432A (P43268 whole entry F428A/F432A): as the sequence (P43268 whole entry E404K) above, with K404E, F428A, F432A counted along it
Chain of ETV4 FL E425K (P43268 whole entry E425K): as the sequence (P43268 whole entry E404K) above, with K404E, E425K counted along it

B1: 27-mer consensus ETS duplex (dsDNA)
DNA 1: TCGACGGCCAAGCCGGAAGTGAGTGCC
DNA 2: TCGAGGCACTCACTTCCGGCTTGGCCG
Kd (ETV4 FL K226ac): 300 ± 60 pM | Kd (ETV4 FL K260ac): 510 ± 30 pM | binding result (ETV4 FL L430A): binds | binding result (ETV4 FL I407A/L430A): binds | binding result (ETV4 L430M): binds | binding result (ETV4 FL E404K): binds | binding result (ETV4 337-436 E404K): binds | binding result (ETV4 337-436 E423K): binds | binding result (ETV4 FL E425K): binds | binding result (ETV4 FL E423K): binds | binding result (ETV4 FL F428A/F432A): binds | binding result (ETV4 337-436 E425K): binds | binding result (ETV4 337-436 F428A/F432A): binds | Kd (ETV4 337-484): 110 ± 20 pM
